Experimental data published in patent US20040265797A1 (CHIRON, published 2004).
Square brackets hold non-standard residues; d marks the D form. Ends that are not written are not given here. 1Nal = N[C@@H](Cc1cccc2ccccc12)C(=O)O; 2Nal = N[C@@H](Cc1ccc2ccccc2c1)C(=O)O; Nle = CCCC[C@H](N)C(=O)O; Abu = CC[C@H](N)C(=O)O

B1: Analog 83 (peptide)
peptide: A[dE]FFKLGPNGYVYLHSA-NH2
modifications: N-terminus assumed
SMILES: CC(C)C[C@H](NC(=O)[C@H](CCCCN)NC(=O)[C@H](Cc1ccccc1)NC(=O)[C@H](Cc1ccccc1)NC(=O)[C@@H](CCC(=O)O)NC(=O)[C@H](C)N)C(=O)NCC(=O)N1CCC[C@H]1C(=O)N[C@@H](CC(N)=O)C(=O)NCC(=O)N[C@@H](Cc1ccc(O)cc1)C(=O)N[C@H](C(=O)N[C@@H](Cc1ccc(O)cc1)C(=O)N[C@@H](CC(C)C)C(=O)N[C@@H](Cc1c[nH]cn1)C(=O)N[C@@H](CO)C(=O)N[C@@H](C)C(N)=O)C(C)C
B2: Analog 89 (peptide)
peptide: AEFFKLGP[dN]GYVYLHSA-NH2
modifications: N-terminus assumed
SMILES: CC(C)C[C@H](NC(=O)[C@H](CCCCN)NC(=O)[C@H](Cc1ccccc1)NC(=O)[C@H](Cc1ccccc1)NC(=O)[C@H](CCC(=O)O)NC(=O)[C@H](C)N)C(=O)NCC(=O)N1CCC[C@H]1C(=O)N[C@H](CC(N)=O)C(=O)NCC(=O)N[C@@H](Cc1ccc(O)cc1)C(=O)N[C@H](C(=O)N[C@@H](Cc1ccc(O)cc1)C(=O)N[C@@H](CC(C)C)C(=O)N[C@@H](Cc1c[nH]cn1)C(=O)N[C@@H](CO)C(=O)N[C@@H](C)C(N)=O)C(C)C
B3: Analog 60 (peptide)
peptide: AESTYHHLSLGYMYT[dL]N-NH2
modifications: N-terminus assumed
SMILES: CSCC[C@H](NC(=O)[C@H](Cc1ccc(O)cc1)NC(=O)CNC(=O)[C@H](CC(C)C)NC(=O)[C@H](CO)NC(=O)[C@H](CC(C)C)NC(=O)[C@H](Cc1c[nH]cn1)NC(=O)[C@H](Cc1c[nH]cn1)NC(=O)[C@H](Cc1ccc(O)cc1)NC(=O)[C@@H](NC(=O)[C@H](CO)NC(=O)[C@H](CCC(=O)O)NC(=O)[C@H](C)N)[C@@H](C)O)C(=O)N[C@@H](Cc1ccc(O)cc1)C(=O)N[C@H](C(=O)N[C@H](CC(C)C)C(=O)N[C@@H](CC(N)=O)C(N)=O)[C@@H](C)O
B4: Analog 61 (peptide)
peptide: AESTYHHLSLGYMYTL[dN]-NH2
modifications: N-terminus assumed
SMILES: CSCC[C@H](NC(=O)[C@H](Cc1ccc(O)cc1)NC(=O)CNC(=O)[C@H](CC(C)C)NC(=O)[C@H](CO)NC(=O)[C@H](CC(C)C)NC(=O)[C@H](Cc1c[nH]cn1)NC(=O)[C@H](Cc1c[nH]cn1)NC(=O)[C@H](Cc1ccc(O)cc1)NC(=O)[C@@H](NC(=O)[C@H](CO)NC(=O)[C@H](CCC(=O)O)NC(=O)[C@H](C)N)[C@@H](C)O)C(=O)N[C@@H](Cc1ccc(O)cc1)C(=O)N[C@H](C(=O)N[C@@H](CC(C)C)C(=O)N[C@H](CC(N)=O)C(N)=O)[C@@H](C)O
B5: Peptide 25 (synthetic peptide of clone 25) (peptide)
peptide: AESTYHHLSLGYMYTLN-NH2
notes: also called clone 25 peptide; analogs 3 and 4
B6: Analog 35 (peptide)
peptide: AEST[1Nal]HHLSLGYMYTLN-NH2
modifications: N-terminus assumed
SMILES: CSCC[C@H](NC(=O)[C@H](Cc1ccc(O)cc1)NC(=O)CNC(=O)[C@H](CC(C)C)NC(=O)[C@H](CO)NC(=O)[C@H](CC(C)C)NC(=O)[C@H](Cc1c[nH]cn1)NC(=O)[C@H](Cc1c[nH]cn1)NC(=O)[C@H](Cc1cccc2ccccc12)NC(=O)[C@@H](NC(=O)[C@H](CO)NC(=O)[C@H](CCC(=O)O)NC(=O)[C@H](C)N)[C@@H](C)O)C(=O)N[C@@H](Cc1ccc(O)cc1)C(=O)N[C@H](C(=O)N[C@@H](CC(C)C)C(=O)N[C@@H](CC(N)=O)C(N)=O)[C@@H](C)O
B7: Analog 36 (peptide)
peptide: AEST[2Nal]HHLSLGYMYTLN-NH2
modifications: N-terminus assumed
SMILES: CSCC[C@H](NC(=O)[C@H](Cc1ccc(O)cc1)NC(=O)CNC(=O)[C@H](CC(C)C)NC(=O)[C@H](CO)NC(=O)[C@H](CC(C)C)NC(=O)[C@H](Cc1c[nH]cn1)NC(=O)[C@H](Cc1c[nH]cn1)NC(=O)[C@H](Cc1ccc2ccccc2c1)NC(=O)[C@@H](NC(=O)[C@H](CO)NC(=O)[C@H](CCC(=O)O)NC(=O)[C@H](C)N)[C@@H](C)O)C(=O)N[C@@H](Cc1ccc(O)cc1)C(=O)N[C@H](C(=O)N[C@@H](CC(C)C)C(=O)N[C@@H](CC(N)=O)C(N)=O)[C@@H](C)O
B8: Analog 44 (peptide)
peptide: AESTYHHLSLGY[Nle]YTLN-NH2
modifications: N-terminus assumed
SMILES: CCCC[C@H](NC(=O)[C@H](Cc1ccc(O)cc1)NC(=O)CNC(=O)[C@H](CC(C)C)NC(=O)[C@H](CO)NC(=O)[C@H](CC(C)C)NC(=O)[C@H](Cc1c[nH]cn1)NC(=O)[C@H](Cc1c[nH]cn1)NC(=O)[C@H](Cc1ccc(O)cc1)NC(=O)[C@@H](NC(=O)[C@H](CO)NC(=O)[C@H](CCC(=O)O)NC(=O)[C@H](C)N)[C@@H](C)O)C(=O)N[C@@H](Cc1ccc(O)cc1)C(=O)N[C@H](C(=O)N[C@@H](CC(C)C)C(=O)N[C@@H](CC(N)=O)C(N)=O)[C@@H](C)O
B9: Analog 45 (peptide)
peptide: AESTYHHLSLGY[Abu]YTLN-NH2
modifications: N-terminus assumed
SMILES: CC[C@H](NC(=O)[C@H](Cc1ccc(O)cc1)NC(=O)CNC(=O)[C@H](CC(C)C)NC(=O)[C@H](CO)NC(=O)[C@H](CC(C)C)NC(=O)[C@H](Cc1c[nH]cn1)NC(=O)[C@H](Cc1c[nH]cn1)NC(=O)[C@H](Cc1ccc(O)cc1)NC(=O)[C@@H](NC(=O)[C@H](CO)NC(=O)[C@H](CCC(=O)O)NC(=O)[C@H](C)N)[C@@H](C)O)C(=O)N[C@@H](Cc1ccc(O)cc1)C(=O)N[C@H](C(=O)N[C@@H](CC(C)C)C(=O)N[C@@H](CC(N)=O)C(N)=O)[C@@H](C)O
notes: T0004 prints Y there, as in peptide 25; Y is used
B10: Analog 46 (peptide)
peptide: [dA]ESTYHHLSLGYMYTLN-NH2
modifications: N-terminus assumed
SMILES: CSCC[C@H](NC(=O)[C@H](Cc1ccc(O)cc1)NC(=O)CNC(=O)[C@H](CC(C)C)NC(=O)[C@H](CO)NC(=O)[C@H](CC(C)C)NC(=O)[C@H](Cc1c[nH]cn1)NC(=O)[C@H](Cc1c[nH]cn1)NC(=O)[C@H](Cc1ccc(O)cc1)NC(=O)[C@@H](NC(=O)[C@H](CO)NC(=O)[C@H](CCC(=O)O)NC(=O)[C@@H](C)N)[C@@H](C)O)C(=O)N[C@@H](Cc1ccc(O)cc1)C(=O)N[C@H](C(=O)N[C@@H](CC(C)C)C(=O)N[C@@H](CC(N)=O)C(N)=O)[C@@H](C)O
B11: Analog 47 (peptide)
peptide: A[dE]STYHHLSLGYMYTLN-NH2
modifications: N-terminus assumed
SMILES: CSCC[C@H](NC(=O)[C@H](Cc1ccc(O)cc1)NC(=O)CNC(=O)[C@H](CC(C)C)NC(=O)[C@H](CO)NC(=O)[C@H](CC(C)C)NC(=O)[C@H](Cc1c[nH]cn1)NC(=O)[C@H](Cc1c[nH]cn1)NC(=O)[C@H](Cc1ccc(O)cc1)NC(=O)[C@@H](NC(=O)[C@H](CO)NC(=O)[C@@H](CCC(=O)O)NC(=O)[C@H](C)N)[C@@H](C)O)C(=O)N[C@@H](Cc1ccc(O)cc1)C(=O)N[C@H](C(=O)N[C@@H](CC(C)C)C(=O)N[C@@H](CC(N)=O)C(N)=O)[C@@H](C)O
B12: Analog 54 (peptide)
peptide: AESTYHHL[dS]LGYMYTLN-NH2
modifications: N-terminus assumed
SMILES: CSCC[C@H](NC(=O)[C@H](Cc1ccc(O)cc1)NC(=O)CNC(=O)[C@H](CC(C)C)NC(=O)[C@@H](CO)NC(=O)[C@H](CC(C)C)NC(=O)[C@H](Cc1c[nH]cn1)NC(=O)[C@H](Cc1c[nH]cn1)NC(=O)[C@H](Cc1ccc(O)cc1)NC(=O)[C@@H](NC(=O)[C@H](CO)NC(=O)[C@H](CCC(=O)O)NC(=O)[C@H](C)N)[C@@H](C)O)C(=O)N[C@@H](Cc1ccc(O)cc1)C(=O)N[C@H](C(=O)N[C@@H](CC(C)C)C(=O)N[C@@H](CC(N)=O)C(N)=O)[C@@H](C)O
B13: Analog 55 (peptide)
peptide: AESTYHHLS[dL]GYMYTLN-NH2
modifications: N-terminus assumed
SMILES: CSCC[C@H](NC(=O)[C@H](Cc1ccc(O)cc1)NC(=O)CNC(=O)[C@@H](CC(C)C)NC(=O)[C@H](CO)NC(=O)[C@H](CC(C)C)NC(=O)[C@H](Cc1c[nH]cn1)NC(=O)[C@H](Cc1c[nH]cn1)NC(=O)[C@H](Cc1ccc(O)cc1)NC(=O)[C@@H](NC(=O)[C@H](CO)NC(=O)[C@H](CCC(=O)O)NC(=O)[C@H](C)N)[C@@H](C)O)C(=O)N[C@@H](Cc1ccc(O)cc1)C(=O)N[C@H](C(=O)N[C@@H](CC(C)C)C(=O)N[C@@H](CC(N)=O)C(N)=O)[C@@H](C)O

Target: T1, Soluble recombinant human urokinase receptor (suPAR) (human, UniProt Q03405 23-299, limits assumed, biotinylated in the plate assays (sites not given))
T1 construct: Only called a soluble truncated form of the urokinase receptor; also called soluble uPAR; biotinylated suPAR
Test: competition with phage displaying peptide 9 for soluble uPAR
Description: (§1) The final anti-M13 conjugate dilution was 1:4000.
(§2) These concentrations were calculated based on the synthesis reactions.

T1 sequence (Q03405 23-299 limits assumed): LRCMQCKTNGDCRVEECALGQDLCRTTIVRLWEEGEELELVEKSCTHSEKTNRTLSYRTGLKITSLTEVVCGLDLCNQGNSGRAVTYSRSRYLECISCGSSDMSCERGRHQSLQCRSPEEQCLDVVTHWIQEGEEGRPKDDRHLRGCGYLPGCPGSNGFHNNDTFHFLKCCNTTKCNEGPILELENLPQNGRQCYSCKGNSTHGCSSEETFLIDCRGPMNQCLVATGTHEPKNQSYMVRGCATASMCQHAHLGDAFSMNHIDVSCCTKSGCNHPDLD

Going from AEFFKLGPNGYVYLHSA-NH2 (also called analogs 62-64) [Peptide 9 (synthetic peptide of clone 9)] to B1, the “% Inhibition at 2.5 uM” value falls from 59% to 44%.

With B2 the “% Inhibition at 2.5 uM” value was 15%.

First: AEFFKLGPNGYVYLHSA-NH2 (also called analogs 62-64) [Peptide 9 (synthetic peptide of clone 9)]
Second: B1
The “% Inhibition at 5 uM” value of the first is higher: 71% for the first, 59% for the second.

With B2 the “% Inhibition at 5 uM” value was 13%.

Target: T1, Soluble recombinant human urokinase …
Test: competition with phage displaying peptide 25 for soluble uPAR
Description: as §1, §2

Compared with B3, B4 is higher in “% Inhibition at 2.5 uM” value: 22% for the first, 32% for the second.

First: B5
Second: AESTFHHLSLGYMYTLN-NH2 [Analog 34]
The “% Inhibition at 2.5 uM” value of the first is higher: 45% for the first, 38% for the second.

Going from AESTYHHLSLGYVYTLN-NH2 [Analog 43] to B6, the “% Inhibition at 2.5 uM” value rises from 63% to 70%.

First: B7
Second: B9
The “% Inhibition at 2.5 uM” value of the first is higher: 61% for the first, 31% for the second.

Compared with B10, B11 is lower in “% Inhibition at 2.5 uM” value: 41% for the first, 35% for the second.

Going from B12 to B13, the “% Inhibition at 2.5 uM” value falls from 73% to 56%.

Going from B3 to B4, the “% Inhibition at 5 uM” value falls from 75% to 55%.

First: B5
Second: AESTFHHLSLGYMYTLN-NH2 [Analog 34]
The “% Inhibition at 5 uM” value of the first is higher: 59% for the first, 47% for the second.

First: AESTYHHLSLGYVYTLN-NH2 [Analog 43]
Second: B6
The “% Inhibition at 5 uM” value of the first is lower: 82% for the first, 94% for the second.

First: B7
Second: B8
The “% Inhibition at 5 uM” value of the first is lower: 78% for the first, 91% for the second.

First: B9
Second: B10
The “% Inhibition at 5 uM” value of the first is higher: 59% for the first, 57% for the second.

Compared with B11, B12 is higher in “% Inhibition at 5 uM” value: 61% for the first, 86% for the second.

In the case of B13, the “% Inhibition at 5 uM” value is reported as 80%.
